Source: US20240109955A1

B1: MX1022 (bispecific antibody)
chain: DTVMTQSPLSLPVTPGEPASISCRSSQSLLNSNGYNYLDWYVQKPGQSPQLLIYLGSNRASGVPDRFSGSGSGTDFTLKISRVEAEDVGVYYCMQPLQTPLFTFGPGTKVEIKGGSSGEIVMTQSPAILSVSPGERATLSCRASQSVAINLAWYQQKPGQAPRLLIYAASSRATGIPGRFSGSGSETNFTLTISSLQSGDFAVYYCQQYITWPPSYTFGQGTKLEIKGGGGSGGSGSGGGGSASGSGEVQLVESGGALIQPGGSLRLSCAASGIIVSANYMSWVRQAPGKGLEWVSVIYSGGSTFYADSVKGRFTISRDNSKNTLYLEMNSLRAEDTAVYYCARDAPILGVSDWGQGTLVTVSSGGSSGQVTLRESGPALVKPTQTLTLTCTFSGFSLSTRGVCVSWIRQPPGKALEWLAFIDWDDDKYYNTSLKTRLTISKDTSKNQVVLTMTNVHPVDTATYYCARISSHHGSSWCTTFDYWGQGALVTVSAASGGSGDKTHTCPPCPAPELLGGPSVFLFPPKPKDTLMISRTPEVTCVVVDVSHEDPEVKFNWYVDGVEVHNAKTKPREEQYNSYVVSVLTVLHQDWLNGKEYKCKVSNKALPAPIEKTISKAKGQPREPQVYTLPPSRDELTKNQVSLTCLVKGFYPSDIAVEWESNGQPENNYKTTPPVLDSDGSFFKKLTVDKSRWQQGNVFSCSVLHEALHSHYTQKSLSLSPG
B2: MX1021 (bispecific antibody)
chain: QTVVTQEPSFSVSPGGTVTLTCGLSSGSVSTAYFPSWYQQTPGQAPRTLIYGTNTRSSGVPDRFSGSILGNKAALTITGAQADDESDYYCVLYMGRGIVVFGGGTKLTVLGGSSGEIVMTQSPAILSVSPGERATLSCRASQSVAINLAWYQQKPGQAPRLLIYAASSRATGIPGRFSGSGSETNFTLTISSLQSGDFAVYYCQQYITWPPSYTFGQGTKLEIKGGGGSGGSGSGGGGSASGSGEVQLVESGGALIQPGGSLRLSCAASGIIVSANYMSWVRQAPGKGLEWVSVIYSGGSTFYADSVKGRFTISRDNSKNTLYLEMNSLRAEDTAVYYCARDAPILGVSDWGQGTLVTVSSGGSSGQVQLVESGGGVVQPGRSLRLSCAASGFTLSSYGMHWVRQAPGKGLEWVAVISYDGSNKYYVDSVKGRFTISRDNSKNTLYLQMNSLRAEDTAVYYCRWAYWELLPDYYYGMDVWGQGTTVTVSSASGGSGDKTHTCPPCPAPELLGGPSVFLFPPKPKDTLMISRTPEVTCVVVDVSHEDPEVKFNWYVDGVEVHNAKTKPREEQYNSYVVSVLTVLHQDWLNGKEYKCKVSNKALPAPIEKTISKAKGQPREPQVYTLPPSRDELTKNQVSLTCLVKGFYPSDIAVEWESNGQPENNYKTTPPVLDSDGSFFKKLTVDKSRWQQGNVFSCSVLHEALHSHYTQKSLSLSPG
B3: MX1073 (protein)
chain 1: QTVVTQEPSFSVSPGGTVTLTCGLSSGSVSTAYFPSWYQQTPGQAPRTLIYGTNTRSSGVPDRFSGSILGNKAALTITGAQADDESDYYCVLYMGRGIVVFGGGTKLTVLGGSSGEIVLTQSPGTLSLSPGETATLSCRASQSFSSDLAWYQQKPGQAPRLLIYGASSRATGIPDRFSGSGSGTDFTLTISRLEPADFAVYYCQQYGSSPPVTFGGGTKVEIKGGGGSGGSGSGGGGSASGSGEVQLVESGGGLIQPGGSLRLSCAASGVIVSYNYMNWVRQAPGKGLEWVSVIYSGGSTFYADSVRGRFTISRDNSKNTLYLQMNSLRAEDTAVYYCARDLGPAGAFDIWGLGTMVTVSSGGSSGQVQLVESGGGVVQPGRSLRLSCAASGFTLSSYGMHWVRQAPGKGLEWVAVISYDGSNKYYVDSVKGRFTISRDNSKNTLYLQMNSLRAEDTAVYYCRWAYWELLPDYYYGMDVWGQGTTVTVSSASGGSGDKTHTCPPCPAPELLGGPSVFLFPPKPKDTLMISRTPEVTCVVVDVSHEDPEVKFNWYVDGVEVHNAKTKPREEQYNSYVVSVLTVLHQDWLNGKEYKCKVSNKALPAPIEKTISKAKGQPREPQVYTLPPCRDELTKNQVSLWCLVKGFYPSDIAVEWESNGQPENNYKTTPPVLDSDGSFFKKLTVDKSRWQQGNVFSCSVLHEALHSHYTQKSLSLSPG
chain 2: QTVVTQEPSFSVSPGGTVTLTCGLSSGSVSTAYFPSWYQQTPGQAPRTLIYGTNTRSSGVPDRFSGSILGNKAALTITGAQADDESDYYCVLYMGRGIVVFGGGTKLTVLGGSSGDTVMTQSPLSLPVTPGEPASISCRSSQSLLNSNGYNYLDWYVQKPGQSPQLLIYLGSNRASGVPDRFSGSGSGTDFTLKISRVEAEDVGVYYCMQPLQTPLFTFGPGTKVEIKGGGGSGGSGSGGGGSASGSGQVTLRESGPALVKPTQTLTLTCTFSGFSLSTRGVCVSWIRQPPGKALEWLAFIDWDDDKYYNTSLKTRLTISKDTSKNQVVLTMTNVHPVDTATYYCARISSHHGSSWCTTFDYWGQGALVTVSAGGSSGQVQLVESGGGVVQPGRSLRLSCAASGFTLSSYGMHWVRQAPGKGLEWVAVISYDGSNKYYVDSVKGRFTISRDNSKNTLYLQMNSLRAEDTAVYYCRWAYWELLPDYYYGMDVWGQGTTVTVSSASGGSGDKTHTCPPCPAPELLGGPSVFLFPPKPKDTLMISRTPEVTCVVVDVSHEDPEVKFNWYVDGVEVHNAKTKPREEQYNSYVVSVLTVLHQDWLNGKEYKCKVSNKALPAPIEKTISKAKGQPREPQVCTLPPSRDELTKNQVSLSCAVKGFYPSDIAVEWESNGQPENNYKTTPPVLDSDGSFFLVSKLTVDKSRWQQGNVFSCSVLHEALHSHYTQKSLSLSPG

How the values were obtained:
Test in all cases: cell-based or functional assay
[1] = target: SARS-CoV-2 Omicron variant BF.7 spike protein (SARS-CoV-2)
[2] = target: SARS-CoV-2 Omicron variant BQ.1.1 spike protein (SARS-CoV-2)
[3] = target: SARS-CoV-2 Omicron variant BA.4.6 spike protein (SARS-CoV-2)
[4] = target: SARS-CoV-2 Delta variant spike protein (SARS-CoV-2)
[5] = target: SARS-CoV-2 Omicron variant BQ.1 spike protein (SARS-CoV-2)
[6] = target: SARS-CoV-2 Omicron variant B.1.1.529 spike protein (SARS-CoV-2)
[7] = target: SARS-CoV-2 Omicron variant BA.2.75.2 spike protein (SARS-CoV-2)
[8] = target: SARS-CoV-2 Omicron variant XBB spike protein (SARS-CoV-2)
[9] = target: SARS-CoV-2 Omicron variant BA.4/5 spike protein (SARS-CoV-2)
[10] = target: SARS-CoV-2 spike protein, Omicron variant BQ.1 (SARS-CoV-2)
[11] = target: SARS-CoV-2 spike protein, Omicron variant XBB (SARS-CoV-2)
[12] = target: SARS-CoV-2 spike protein, Omicron variant BA.2.75.2 (SARS-CoV-2)
[13] = target: SARS-CoV-2 spike protein, Omicron variant BA.4/5 (SARS-CoV-2)
[14] = target: SARS-CoV-2 spike protein, Omicron variant BQ.1.1 (SARS-CoV-2)

| Binder | IC50, pseudovirus neutralization [1] | IC80, pseudovirus neutralization [1] | IC50, pseudovirus neutralization [2] | IC80, pseudovirus neutralization [2] | IC50, pseudovirus neutralization [3] | IC80, pseudovirus neutralization [3] | IC50, pseudovirus neutralization [4] | IC80, pseudovirus neutralization [4] | IC50, pseudovirus neutralization [5] | IC80, pseudovirus neutralization [5] | IC50, pseudovirus neutralization [6] | IC80, pseudovirus neutralization [6] | IC50, pseudovirus neutralization [7] | IC80, pseudovirus neutralization [7] | IC50, pseudovirus neutralization [8] | IC80, pseudovirus neutralization [8] | IC50, pseudovirus neutralization [9] | IC80, pseudovirus neutralization [9] | also measured |
| --- | --- | --- | --- | --- | --- | --- | --- | --- | --- | --- | --- | --- | --- | --- | --- | --- | --- | --- | --- |
| B1 | 2.38 ng/mL | 8.29 ng/mL | 1.13 ng/mL | 6.72 ng/mL | 4.9 ng/mL | 8.82 ng/mL | 31.5 ng/mL | 25.4 ng/mL | 6.58 ng/mL | 19.2 ng/mL | 4.22 ng/mL | 4.74 ng/mL | 0.89 ng/mL | 2.8 ng/mL | 5.85 ng/mL | 12.4 ng/mL | 1.98 ng/mL | 3.33 ng/mL |  |
| B2 | 11.3 ng/mL | 31.7 ng/mL | 2.77 ng/mL | 28.5 ng/mL | 12.9 ng/mL | 41.4 ng/mL | 64.8 ng/mL | 219 ng/mL | 11.3 ng/mL | 51.9 ng/mL | 2.91 ng/mL | 13.1 ng/mL | 3.73 ng/mL | 13.2 ng/mL | 14.7 ng/mL | 61.1 ng/mL | 13.8 ng/mL | 26 ng/mL |  |
| B3 |  |  |  |  |  |  |  |  |  |  |  |  |  |  |  |  |  |  | IC50, pseudovirus neutralization [10]: 1.9 ng/mL; IC80, pseudovirus neutralization [10]: 10.8 ng/mL; IC50, pseudovirus neutralization [11]: 9.3 ng/mL; IC80, pseudovirus neutralization [11]: 24 ng/mL; IC50, pseudovirus neutralization [12]: 1.81 ng/mL; IC80, pseudovirus neutralization [12]: 3.35 ng/mL; IC50, pseudovirus neutralization [13]: 2.78 ng/mL; IC80, pseudovirus neutralization [13]: 4.28 ng/mL; IC50, pseudovirus neutralization [14]: 5.77 ng/mL; IC80, pseudovirus neutralization [14]: 24.1 ng/mL |
